Publication PMC8800115, “The ASCC2 CUE domain in the ALKBH3–ASCC DNA repair complex recognizes adjacent ubiquitins in K63-linked polyubiquitin” (The Journal of Biological Chemistry, 2021)

Target: T1, K63-linked diubiquitin (UniProt P0CG48 1-76; P0CG48 1-76, K48R | K63R | D77 extension, distal ubiquitin: C-terminal G76 in an isopeptide bond with K63 of the proximal ubiquitin | proximal ubiquitin: K63 in an isopeptide bond with G76 of the distal ubiquitin)
T1 construct: ubiquitin, residues 1 to 76, K48R/K63R; distal position of K63Ub2; ubiquitin, residues 1 to 76, with a D77 extension; proximal position of K63Ub2; Two ubiquitins joined covalently; For NMR either the distal or the proximal ubiquitin was 15N-labelled; also called K63Ub2; WT K63Ub2
Experiment: ITC; MicroCal iTC200; proteins dialysed in 20 mM Hepes pH 7.5, 150 mM NaCl, 200 μM TCEP; 2-μl injections; who was in the cell is not given; ranges of Kd are from fits with N fixed to 1 (first value: active concentration in the cell varied, second: in the syringe); Kd of S470R and E467R/S470R called apparent
Details: both partners purified

B1: full-length ASCC2 (natural protein, human, UniProt Q9H1I8 1-757, looked up)
chain: MPALPLDQLQITHKDPKTGKLRTSPALHPEQKADRYFVLYKPPPKDNIPALVEEYLERATFVANDLDWLLALPHDKFWCQVIFDETLQKCLDSYLRYVPRKFDEGVASAPEVVDMQKRLHRSVFLTFLRMSTHKESKDHFISPSAFGEILYNNFLFDIPKILDLCVLFGKGNSPLLQKMIGNIFTQQPSYYSDLDETLPTILQVFSNILQHCGLQGDGANTTPQKLEERGRLTPSDMPLLELKDIVLYLCDTCTTLWAFLDIFPLACQTFQKHDFCYRLASFYEAAIPEMESAIKKRRLEDSKLLGDLWQRLSHSRKKLMEIFHIILNQICLLPILESSCDNIQGFIEEFLQIFSSLLQEKRFLRDYDALFPVAEDISLLQQASSVLDETRTAYILQAVESAWEGVDRRKATDAKDPSVIEEPNGEPNGVTVTAEAVSQASSHPENSEEEECMGAAAAVGPAMCGVELDSLISQVKDLLPDLGEGFILACLEYYHYDPEQVINNILEERLAPTLSQLDRNLDREMKPDPTPLLTSRHNVFQNDEFDVFSRDSVDLSRVHKGKSTRKEENTRSLLNDKRAVAAQRQRYEQYSVVVEEVPLQPGESLPYHSVYYEDEYDDTYDGNQVGANDADSDDELISRRPFTIPQVLRTKVPREGQEEDDDDEEDDADEEAPKPDHFVQDPAVLREKAEARRMAFLAKKGYRHDSSTAVAGSPRGHGQSRETTQERRKKEANKATRANHNRRTMADRKRSKGMIPS
notes: source: E. coli Rosetta (DE3), purified (HisTrap, Superdex 200)
stoichiometry N: 1 ASCC2 per K63Ub2
